Here are results for two substances from US20150037348A1.

By Kd is commonly meant the free concentration of one partner at which half of the binding sites on the other are occupied at equilibrium, for simple one-to-one binding. The term koff denotes the rate constant with which the complex falls apart. What is called kon is the second-order rate constant of association. One may read the IC50 as the concentration at which inhibition is half-maximal.

Experiment [1] deals with recombinant rhesus IL-12 (rhesus monkey) (UniProt P48091). Nature of the experiment: cell-based or functional assay.
Sequence of recombinant rhesus IL-12 (rhesus monkey) (P48091 23-219, chain 1 of 2): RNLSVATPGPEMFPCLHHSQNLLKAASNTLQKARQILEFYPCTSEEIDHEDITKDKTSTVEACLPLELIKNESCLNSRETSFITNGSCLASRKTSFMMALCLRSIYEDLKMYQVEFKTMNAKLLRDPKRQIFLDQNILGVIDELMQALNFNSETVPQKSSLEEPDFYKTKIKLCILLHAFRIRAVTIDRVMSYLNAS
Sequence of recombinant rhesus IL-12 (rhesus monkey) (P48095 23-328, chain 2 of 2, further chain): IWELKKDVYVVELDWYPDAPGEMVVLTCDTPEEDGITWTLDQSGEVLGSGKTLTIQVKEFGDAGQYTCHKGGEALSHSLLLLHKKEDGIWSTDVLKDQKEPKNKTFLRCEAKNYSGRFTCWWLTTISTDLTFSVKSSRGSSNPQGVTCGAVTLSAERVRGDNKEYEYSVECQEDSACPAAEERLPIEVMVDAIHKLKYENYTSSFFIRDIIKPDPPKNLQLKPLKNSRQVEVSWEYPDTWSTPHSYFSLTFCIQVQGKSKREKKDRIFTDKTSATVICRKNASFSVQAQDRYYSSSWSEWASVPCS
In experiment [2] the target is recombinant human IL-12 (rhIL-12) (human) (UniProt P29459). The experiment in a line: cell-based or functional assay.
Sequence of recombinant human IL-12 (rhIL-12) (human) (P29459 23-219, chain 1 of 2): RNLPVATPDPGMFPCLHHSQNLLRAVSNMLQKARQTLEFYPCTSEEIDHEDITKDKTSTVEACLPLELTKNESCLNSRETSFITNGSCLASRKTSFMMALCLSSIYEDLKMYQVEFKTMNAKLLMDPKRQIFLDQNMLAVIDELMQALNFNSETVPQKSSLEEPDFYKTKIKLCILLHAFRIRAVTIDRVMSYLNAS
Sequence of recombinant human IL-12 (rhIL-12) (human) (P29460 23-328, chain 2 of 2, further chain): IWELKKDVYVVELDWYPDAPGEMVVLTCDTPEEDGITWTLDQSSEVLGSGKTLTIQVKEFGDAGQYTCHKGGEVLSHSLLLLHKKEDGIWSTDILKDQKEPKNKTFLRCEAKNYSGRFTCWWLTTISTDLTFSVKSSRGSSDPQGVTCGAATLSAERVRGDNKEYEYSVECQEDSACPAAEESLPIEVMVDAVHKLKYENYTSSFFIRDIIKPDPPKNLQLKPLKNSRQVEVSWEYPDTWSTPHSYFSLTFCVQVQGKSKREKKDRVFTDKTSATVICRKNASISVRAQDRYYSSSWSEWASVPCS
The target of experiment [3] is cynomolgus IL-12 (PBMC supernatant) (cynomolgus monkey). Nature of the experiment: cell-based or functional assay.
Experiment [4] deals with baboon IL-12 (PBMC supernatant) (baboon). The experiment in a line: cell-based or functional assay.
The target of experiment [5] is recombinant murine IL-12 (mouse) (UniProt P43431). Nature of the experiment: biomolecular interaction assay, C17.15 captured via goat anti-rat IgG, murine IL-12 in solution.
Sequence of recombinant murine IL-12 (mouse) (P43431 23-215, chain 1 of 2): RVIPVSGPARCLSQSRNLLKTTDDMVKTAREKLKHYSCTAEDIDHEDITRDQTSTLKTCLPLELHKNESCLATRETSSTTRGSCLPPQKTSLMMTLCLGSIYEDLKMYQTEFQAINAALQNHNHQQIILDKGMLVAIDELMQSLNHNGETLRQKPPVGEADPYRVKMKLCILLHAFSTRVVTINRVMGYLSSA
Sequence of recombinant murine IL-12 (mouse) (P43432 23-335, chain 2 of 2, further chain): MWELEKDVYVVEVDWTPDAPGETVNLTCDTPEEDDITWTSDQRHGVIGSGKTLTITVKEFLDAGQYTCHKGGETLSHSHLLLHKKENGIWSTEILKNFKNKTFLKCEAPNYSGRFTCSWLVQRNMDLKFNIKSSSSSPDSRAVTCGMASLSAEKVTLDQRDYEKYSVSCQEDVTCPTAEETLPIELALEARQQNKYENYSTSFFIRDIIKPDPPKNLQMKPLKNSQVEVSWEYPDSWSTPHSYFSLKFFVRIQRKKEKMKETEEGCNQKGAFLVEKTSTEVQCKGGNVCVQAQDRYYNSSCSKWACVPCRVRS
Experiment [6] has the same target. The experiment in a line: receptor binding assay, 125I-murine IL-12 on 2D6 cells.
Experiment [7] has the same target. Nature of the experiment: cell-based or functional assay.

As for C8.6.2 (antibody), the IC50 (M), bioassay, Rhesus IL-12 Purified in experiment [1] was 1e-10 M. For the same substance, in experiment [2], the IC50 (M), bioassay, Human IL-12 Purified worked out at 5e-11 M. This substance also registered an IC50 (M), bioassay, Cyno IL-12 PBMC sup in experiment [3] of 1.2e-10 M. The substance also displayed an IC50 (M), bioassay, Baboon IL-12 PBMC sup in experiment [4] of 2e-10 M.

In the case of C17.15 (antibody), in experiment [5], the Kd worked out at 0.48 nM, the koff turned out to be 0.000184 s⁻¹ and the kon worked out at 380000 M⁻¹ s⁻¹. In experiment [6], the half-maximal inhibitory concentration (IC50) is 0.15 nM. Besides, in experiment [7], the IC50 (M), bioassay, Mouse IL-12 Purified came out at 3e-11 M and the PHA blast IC50 was determined as 0.014 nM.
